{"source": "paper PMC10866549", "about": "(Science Advances, 2024)", "biological_target": "T1, NRF2-His (his-tag mouse NRF2) (mouse, UniProt Q60795 1-597)", "T1 sequence (looked up)": "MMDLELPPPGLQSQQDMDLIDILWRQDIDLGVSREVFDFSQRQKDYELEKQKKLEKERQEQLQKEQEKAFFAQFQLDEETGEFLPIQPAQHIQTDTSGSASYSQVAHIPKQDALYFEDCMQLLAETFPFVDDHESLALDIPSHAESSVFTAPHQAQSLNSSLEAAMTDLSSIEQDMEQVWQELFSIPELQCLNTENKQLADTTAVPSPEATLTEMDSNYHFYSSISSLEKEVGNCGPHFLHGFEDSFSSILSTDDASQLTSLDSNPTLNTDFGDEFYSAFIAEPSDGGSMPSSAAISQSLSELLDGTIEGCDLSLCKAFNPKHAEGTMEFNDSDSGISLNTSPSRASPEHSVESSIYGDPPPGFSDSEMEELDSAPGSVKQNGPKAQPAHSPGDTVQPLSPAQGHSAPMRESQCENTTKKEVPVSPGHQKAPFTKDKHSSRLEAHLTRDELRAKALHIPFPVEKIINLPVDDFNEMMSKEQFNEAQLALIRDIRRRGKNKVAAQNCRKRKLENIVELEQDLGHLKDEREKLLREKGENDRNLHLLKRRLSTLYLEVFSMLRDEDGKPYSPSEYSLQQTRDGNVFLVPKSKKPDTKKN", "assay": "pull-down"}
{"binder": "p53R245W-Flag (natural protein, mouse, UniProt P02340 1-390, looked up) MTAMEESQSDISLELPLSQETFSGLWKLLPPEDILPSPHCMDDLLLPQDVEEFFEGPSEALRVSGAPAAQDPVTETPGPVAPAPATPWPLSSFVPSQKTYQGNYGFHLGFLQSGTAKSVMCTYSPPLNKLFCQLAKTCPVQLWVSATPPAGSRVRAMAIYKKSQHMTEVVRRCPHHERCSDGDGLAPPQHLIRVEGNLYPEYLEDRQTFRHSVVVPYEPPEAGSEYTTIHYKYMCNSSCMGGMNWRPILTIITLEDSSGNLLGRDSFEVRVCACPGRDRRTEEENFRKKEVLCPELPPGSAKRALPTCTSASPPQKKKPLDGEYFTLKIRGRKRFEMFRELNEALELKDAHATEESGDSRAHSSYLKTKKGQSTSRHKKTMVKKVGPDSD", "values": [{"measurement": "binding result", "value": "binds"}]}
